# Values joined by “and” are separate entries in the source; they are usually repeats but may differ in a detail not shown here. Equal entries are not always repeated. Marks after values point to notes of the source that are not given here.
# B1: IFN-γ: murine recombinant γ-interferon (protein, UniProt P01580 23-155, looked up)
# Interferon gamma: HGTVIESLESLNNYFNSSGIDVEEKSLFLDIWRNWQKDGDMKILQSQIISFYLRLFEVLKDNQAISNNISVIESHLITTFFSNSKAKKDAFMSIAKFEVNNPQVQRQAFNELIRVVHQLLPESSLRKRKRSRC
# B2: Purified protein: purified murine fg12 fusion protein with six histidine residues and an enterokinase site at the N-terminus, baculovirus expressed (protein)
# chain: VEEHNLTEGLEDASAQAACPARLEGSGRCEGSQCPFQLTLPTLTIQLPRQLGSMEEVLKEVRTLKEAVDSLKKSCQDCKLQADDHRDPGGNGGNGAETAEDSRVQELESQVNKLSSELKNAKDQIQGLQGRLETLHLVNMNNIENYVDNKVANLTVVVNSLDGKCSKCPSQEHMQSQPVQHLIYKDCSDHYVLGRRSSGAYRVTPDHRNSSFEVYCDMETMGGGWTVLQARLDGSTNFTREWKDYKAGFGNLEREFWLGNDKIHLLTKSKEMILRIDLEDFNGLTLYALYDQFYVANEFLKYRLHIGNYNGTAGDALRFSRHYNHDLRFFTTPDRDNDRYPSGNCGLYYSSGWWFDSCLSANLNGKYYHQKYKGVRNGIFWGTWPGINQAQPGGYKSSFKQAKMMIRPKNFKP
# modifications: left off: small tags and cut ends
# notes: purified murine fg12 fusion protein with six histidine residues and an enterokinase site at the N-terminus, baculovirus expressed
# What was measured:
# [1] = tested on: DBA/2-mated CBA/J mice; experiment: Fetal loss in DBA/2-mated CBA/J mice: role of asialoGM1+ NK cells, macrophages and cytokines; format: in vivo, mouse
# Description: Inbred mice of strains CBA/J and DBA/2 were obtained from Iffa Credo. France C57B1/6J and DBA/2 mice were obtained from the Jackson Laboratories, Bar Harbor, Me. C57B1/6 mice with knockout of the interferon response element IRF-1 were generated as previously described (Duncan, G. S. et al., J. Exp. Med. 184:2043 (1996)) and bred in at the Ontario Cancer Institute, Toronto. CBA/J mice were maintained in the Paris colony under conventional open-top wire cage conditions with food and water ad lib and a 12 hour light-dark cycle. Mice in the Toronto colony were maintained in a barrier facility. Female CBA/J, C57B1/6 or C57B1/6 IRF−/− mice were mated by overnight cohabitation with a DBA/2J male, and the morning of sighting a vaginal plug was defined as day 0.5 of pregnancy.
# Pregnant CBA/J mice were depleted of NK cells by injection of 1 ml rabbit IgG anti-asialoGM1 antibody (Immunocorp, Richmond, Va.) ip on day 6.5 of gestation; phosphate buffered saline (PBS) was used as a control as it has been previously shown to be equivalent to non-immune rabbit IgG (Clark, D. A., Crit. Rev. Immunol. 11:215 (1991)). Macrophage depletion was performed by ip injection of 100 mg/kg silicon dioxide twice a week for 4 weeks prior to mating, as described in Baek, H-S. and J-W. Yoon (J. Virol. 64:5708 (1990)). Affinity-purified rabbit IgG neutralizing antibody to mouse procoagulant (fg12-prothombinase) was prepared as previously described (Ding, J. W. et al., J. Exp. Med. (1997); Dackiw, A. P. B. et al., Arch. Surg. 131:1273 (1996)); the mice were given a ip injection of 200 μl of a 1/50 dilution of a 5.5 mg/ml preparation of anti-prothombinase or control rabbit antibody each day beginning on day 3.5 of gestation. Hormonal support of pregnancy sufficient to replace ovarian function was provided in some experiments by injecting 6.7 ng 17 β-estradiol+1 mg progesterone in 0.1 ml oil im daily beginning on day 4.5 of gestation (Michael, S. D. et al., Biol. Reprod. 12:400 (1975)). One hundred […] of rat monoclonal IgG2b anti-mouse granulocyte antibody RB6-8C5 (Pharmingen) (Stoppacciaro, A. et al., J. Exp. Med. 178:151 (1993)) or isotype control was injected ip on either day 6.5 or on day 8.5 of pregnancy. TNF-α (6 and R&D Systems) 1000 or 2000 units and/or murine recombinant γ-interferon (6 and R&D Systems) 1000 units was injected ip on day 7.5 of pregnancy. On day 13.5 of pregnancy, the mice were sacrificed and the number of resorbing and healthy embryos was counted. In some experiments, the uteri were snap frozen, 5 micron sections were cut, and the tissues were stained with rat monoclonal F4/80 antibody (Caltag, Tebu, France) to macrophages. Briefly, tissue sections were incubated with a 1/30 dilution of F4/80 in PBS for 30 minutes, and binding was detected using peroxidase-streptavidin with biotin-labelled anti-rat IgG2b second antibody (Secrotec) (Kachkache, M. et al., Biol. Reprod. 45:860 (1991)).
# Four to ten mated mice per treatment group were used. The significance of differences in the pooled resorption rate was tested by c^2 of Fisher's Exact test where appropriate.
# [2] = tested on: 125I-prothrombin; experiment: Prothrombin cleavage assay; format: biochemical; settings: FIG. 22
# Experimental: To determine if the expressed fusion protein acts as a direct prothrombinase, the prothrombin cleavage assay was performed as previously described (Schwartz et al., 1982). 125I-prothrombin was incubated with High 5 cells, both infected or uninfected with the recombinant virus. Purified mfg12 fusion protein was also studied to determine its ability to cleave prothrombin. Human Factor Xa in the presence of Russell's viper venom (RVV) was used as a positive control. Samples were run on 10% SDS-PAGE and analyzed by autoradiography for 125I-prothrombin and their cleavage products.
# [3] = tested on: recalcified platelet-poor normal human plasma; experiment: One-stage clotting assay (procoagulant activity, PCA); format: biochemical
# Experimental: This assay for fg12 prothrombinase was used to directly measure procoagulant activity. High 5 cells infected with recombinant virus expressing the mfg12 fusion protein were subjected to cycles of freeze thawing. They were then assayed for their ability to accelerate the spontaneous clotting time of recalcified platelet-poor normal human plasma as previously described (Levy & Edgington, 1980). Results were quantitated by comparison with serial dilutions of standard rabbit brain thromboplastin. Activities from cells infected with the recombinant virus were compared with those uninfected and wild-type virus infected, and with the purified protein alone. Proteins involved in the coagulation pathway require a phospholipid bilayer for functional activity; therefore purified protein was reconstituted into […] to determine their PCA activity. Additional PCA assays were performed with human plasma deficient in coagulation factors II, V, VII, VIII, X, and XII to determine the nature (factor dependence) of the expressed PCA.
# [4] = Expt 1, anti-asialoGM1 pretreated (NK depleted) mice, 1000 u day 7.5
# [5] = Expt 1, anti-asialoGM1 pretreated (NK depleted) mice, 2000 u day 7.5
# [6] = Expt 1, day 6.5 PBS, 1000 u ip day 7.5, day 13.5 assay
# [7] = Expt 1, day 6.5 PBS, 2000 u ip day 7.5, day 13.5 assay
# [8] = Expt 2, anti-asialoGM1 pretreated (NK depleted) mice, 1000 u IFN-γ, TNF-α 1000 u or 2000 u pooled
# [9] = Expt 2, day 6.5 PBS, 1000 u IFN-γ, TNF-α 1000 u or 2000 u pooled, day 7.5
# [10] = Table 9, 20 ng added to H5 cells + RV
# [11] = Table 9, 100 ng added to H5 cells + RV
# [12] = Table 9, 3 μg reconstituted into H5 cells
# [13] = Table 9, purified protein 3 μg alone
molecule,measurement,setting,value
TNF-α,% fetal losses,[1]; [4],16%^e
same,resorptions/total,[1]; [4],12/63
same,% fetal losses,[1]; [5],22%^e
same,resorptions/total,[1]; [5],12/55
same,% fetal losses,[1]; [6],72%^b
same,resorptions/total,[1]; [6],43/60
same,% fetal losses,[1]; [7],89%^c
same,resorptions/total,[1]; [7],57/64
B1,% fetal losses,[1]; [8],12%^e
same,resorptions/total,[1]; [8],12/98
same,% fetal losses,[1]; [9],85%^g
same,resorptions/total,[1]; [9],79/93
B2,cleavage of 125I-prothrombin (SDS-PAGE autoradiography),[2],no prothrombin cleavage
same,PCA,"[3]; Table 7, purified protein 3 μg, uninfected High 5 cells <1",<1 Miliunits/2 × 10^6 cells
same,PCA Time,"[3]; Table 7, purified protein 3 μg, uninfected High 5 cells >240",220 s
same,PCA Milliunits,[3]; [10],1254 mU/2 × 10^6 cells
same,PCA Time,[3]; [10],57 s
same,PCA Milliunits,[3]; [11],1543 mU/2 × 10^6 cells
same,PCA Time,[3]; [11],54 s
same,PCA Time,"[3]; Table 9, 3 μg added to H5 cells + RV (printed for two lines)",50 s and 34 s
same,PCA Milliunits,[3]; [12],3634 mU/2 × 10^6 cells
same,PCA Time,[3]; [12],42 s
same,PCA Milliunits,[3]; [13],<1 mU/2 × 10^6 cells
same,PCA Time,[3]; [13],220 s
same,PCA after reconstitution of purified protein into insect cells,[3]; preliminary results,partial PCA activity recovery
same,PCA detected,[3]; purified soluble protein alone,no activity
same,prevention of PCA expression by cells infected with recombinant virus,[3]; soluble mfg12 protein added to cell lysate,incapable of preventing the clotting induced by the cell lysate

# From US6805863B2, “Methods of modulating immune coagulation” (Trillium Therapeutics Inc., priority 1997, dated 2004)
